From IntAct's records for PubMed 24947010

B1: Parkinson disease protein 7 (Homo sapiens), Q99497 (parent)
chain: MASKRALVILAKGAEEMETVIPVDVMRRAGIKVTVAGLAGKDPVQCSRDVVICPDASLEDAKKEGPYDVVVLPGGNLGAQNLSESAAVKEILKEQENRKGLIAAICAGPTALLAHEIGFGSKVTTHPLAKDKMMNGGHYTYSENRVEKDGLILTSRGPGTSFEFALAIVEALNGKEVAAQVKAPLVLKD

Variants of: B1
Conditions: with rack1_human RACK1, P63244

effect of a mutation on the interaction | Variant
decreasing interaction strength | MASKRALVILAKGAEEMETVIPVDVMRRAGIKVTVAGLAGKDPVQCSRDVVISPDASLEDAKKEGPYDVVVLPGGNLGAQNLSESAAVKEILKEQENRKGLIAAICAGPTALLAHEIGFGSKVTTHPLAKDKMMNGGHYTYSENRVEKDGLILTSRGPGTSFEFALAIVEALNGKEVAAQVKAPLVLKD [C53S]
disrupting interaction strength | MASKRALVILAKGAEEMETVIPVDVMRRAGIKVTVAGLAGKDPVQCSRDVVICPDASLEDAKKEGPYDVVVLPGGNLGAQNLSESAAVKEILKEQENRKGLIAAISAGPTALLAHEIGFGSKVTTHPLAKDKMMNGGHYTYSENRVEKDGLILTSRGPGTSFEFALAIVEALNGKEVAAQVKAPLVLKD [C106S]
disrupting interaction strength | MASKRALVILAKGAEEMETVIPVDVMRRAGIKVTVAGLAGKDPVQSSRDVVICPDASLEDAKKEGPYDVVVLPGGNLGAQNLSESAAVKEILKEQENRKGLIAAICAGPTALLAHEIGFGSKVTTHPLAKDKMMNGGHYTYSENRVEKDGLILTSRGPGTSFEFALAIVEALNGKEVAAQVKAPLVLKD [C46S]
